Laboratory results as given in patent publication US20130078234A1 (Daiichi Sankyo, published 2013).
Numbering of substitutions follows the chain as printed.

How the values were obtained:
[1] = biological target: T1, B7RP-1 (B7 family protein, on transfected 293T cells) (Homo sapiens (Human), UniProt O75144 19-302); experiment: flow cytometry on transfected 293T cells
T1 sequence: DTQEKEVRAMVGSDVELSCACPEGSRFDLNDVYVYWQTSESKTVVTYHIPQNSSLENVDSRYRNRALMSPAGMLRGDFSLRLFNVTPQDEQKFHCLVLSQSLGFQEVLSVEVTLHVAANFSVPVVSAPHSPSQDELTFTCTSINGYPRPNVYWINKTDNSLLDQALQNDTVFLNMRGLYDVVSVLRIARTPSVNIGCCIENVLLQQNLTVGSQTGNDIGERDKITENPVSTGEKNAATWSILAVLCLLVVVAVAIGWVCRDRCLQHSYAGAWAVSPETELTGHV

[2] = biological target: B7-H1 (B7 family protein, on transfected 293T cells) (Homo sapiens (Human), UniProt Q9NZQ7 19-290); experiment: flow cytometry on transfected 293T cells
[3] = biological target: T2, CD80 (B7 family protein, on transfected 293T cells) (Homo sapiens (Human), UniProt P33681 35-288); experiment: flow cytometry on transfected 293T cells
T2 sequence: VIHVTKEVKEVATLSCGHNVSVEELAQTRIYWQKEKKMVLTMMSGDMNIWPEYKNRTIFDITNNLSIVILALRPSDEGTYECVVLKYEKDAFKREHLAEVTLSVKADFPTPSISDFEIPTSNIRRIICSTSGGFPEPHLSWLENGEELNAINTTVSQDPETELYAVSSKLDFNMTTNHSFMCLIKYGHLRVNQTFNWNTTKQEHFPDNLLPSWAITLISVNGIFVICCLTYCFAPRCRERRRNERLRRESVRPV

[4] = biological target: T3, CD86 (B7 family protein, on transfected 293T cells) (Homo sapiens (Human), UniProt P42081 24-329); experiment: flow cytometry on transfected 293T cells
T3 sequence: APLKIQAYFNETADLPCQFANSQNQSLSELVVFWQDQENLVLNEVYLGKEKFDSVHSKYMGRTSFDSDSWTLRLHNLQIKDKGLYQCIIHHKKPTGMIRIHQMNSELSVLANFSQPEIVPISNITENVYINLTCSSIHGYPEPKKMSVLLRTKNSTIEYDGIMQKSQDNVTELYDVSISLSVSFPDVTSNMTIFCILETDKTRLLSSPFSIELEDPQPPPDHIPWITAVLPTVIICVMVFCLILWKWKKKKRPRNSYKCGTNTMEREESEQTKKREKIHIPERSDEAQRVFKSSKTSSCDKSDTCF

[5] = biological target: T4, B7-H4 (B7 family protein, on transfected 293T cells) (Homo sapiens (Human), UniProt Q7Z7D3 25-282); experiment: flow cytometry on transfected 293T cells
T4 sequence: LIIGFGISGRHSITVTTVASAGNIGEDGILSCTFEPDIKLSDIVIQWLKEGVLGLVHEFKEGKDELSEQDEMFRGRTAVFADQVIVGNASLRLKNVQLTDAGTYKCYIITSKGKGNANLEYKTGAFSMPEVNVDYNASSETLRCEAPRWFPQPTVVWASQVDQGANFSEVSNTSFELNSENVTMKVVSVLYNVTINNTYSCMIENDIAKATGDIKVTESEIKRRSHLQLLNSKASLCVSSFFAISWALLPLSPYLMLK

[6] = biological target: T5, B7-H3 IgV2 (B7-H3 partial protein, on transfected NIH-3T3 cells) (human, UniProt Q5ZPR3 245-534); experiment: flow cytometry on NIH-3T3 cells transfected with the B7-H3 IgV2 expression vector; fluorescein anti-mouse IgG secondary; FL1 Log histogram
T5 construct: expressed on cells from pFLAG-myc-CMV-19-DEST; leader or tag from the vector not described
T5 sequence: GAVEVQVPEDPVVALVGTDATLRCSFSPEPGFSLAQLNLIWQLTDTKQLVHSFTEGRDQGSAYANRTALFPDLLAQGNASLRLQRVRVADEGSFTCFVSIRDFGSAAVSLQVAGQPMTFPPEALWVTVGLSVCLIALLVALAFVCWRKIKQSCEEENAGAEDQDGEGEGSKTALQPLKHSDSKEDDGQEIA
Method: (§1) The binding specificity, for B7-H3, of the antibody produced by the hybridoma which immunoprecipitated the B7-H3 variant 1 identified by MS was confirmed by a flow cytometric method. The cell suspension prepared in Example 3)-2 was centrifuged, and the supernatant was removed. Then, the hybridoma culture supernatant was added to the NIH-3T3 cells transfected with each vector to suspend the cells, and the cells were left to stand at 4° C. for 1 hour.
(§2) It was examined as to which domain of B7-H3 the M30 binds by a flow cytometric method in the same manner as in Example 3)-3. The NIH-3T3 cells transfected with each of the expression vectors for B7-H3 partial proteins prepared in Example 1)-1-3 were used.

[7] = biological target: T6, extracellular domain polypeptide of a recombinant B7-H3 variant 2 antigen (R&D Systems, Inc., #2318-B3-050/CF) (human, UniProt Q5ZPR3 29-466); experiment: competition ELISA on plate-coated B7-H3 variant 2 extracellular domain polypeptide; competitor biotinylated M30 (bM30, 5 ug/ml), detected with streptavidin-HRP, OD 450 nm
T6 construct: Bought recombinant protein; also called recombinant B7-H3 antigen; B7-H3 antigen
T6 sequence: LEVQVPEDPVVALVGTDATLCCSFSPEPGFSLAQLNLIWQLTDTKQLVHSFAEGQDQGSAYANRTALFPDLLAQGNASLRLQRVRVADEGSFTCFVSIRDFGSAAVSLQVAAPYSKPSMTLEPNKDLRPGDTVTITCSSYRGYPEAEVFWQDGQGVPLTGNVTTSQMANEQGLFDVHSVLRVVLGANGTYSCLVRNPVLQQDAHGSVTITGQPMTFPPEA
Method: Each of the extracellular domain polypeptide of the B7-H3 variant 1 (manufactured by R&D Systems, Inc., #1949-B3-050/CF) and the extracellular domain polypeptide of the B7-H3 variant (manufactured by R&D Systems, Inc., #2318-B3-050/CF) was diluted to 0.5 μg/ml with a coating buffer and the resulting solution was dispensed at 100 μL/well in an immunoplate (manufactured by Nunc, Inc., #442404). Then, the plate was left to stand overnight at 4° C., whereby the protein was adsorbed to the plate. On the next day, an assay diluent was dispensed at 200 μL/well, and the plate was left to stand at room temperature for 4 hours.

[8] = biological target: T6, extracellular domain polypeptide of a …; experiment: SPR, antibody captured on immobilized anti-mouse IgG, B7-H3 variant 2 extracellular domain as analyte; M30 mouse antibody, captured on anti-mouse IgG
Method: The affinity between the M30 antibody or the cM30 antibody and the B7-H3 antigen was measured by a surface plasmon resonance (SPR) device (GE Healthcare Corporation). According to a common procedure, an anti-mouse IgG or an anti-human IgG antibody was immobilized on a sensor chip, and then, the M30 antibody sample or the cM30 antibody was bound thereto. Thereafter, an extracellular domain polypeptide of a recombinant B7-H3 variant 2 antigen (manufactured by R&D Systems, Inc., #2318-B3-050/CF) was added thereto at different concentrations, and the amount of the antigen bound to the antibody in a running buffer (phosphate buffer, 0.05% SP20) was measured over time. The measured amount was analyzed with a dedicated software (BIAevaluation Version 4.1, GE Healthcare Corporation) and a dissociation constant was calculated.

[9] = biological target: T7, B7-H3 IgV1 (B7-H3 partial protein, on transfected NIH-3T3 cells) (human, UniProt Q5ZPR3 27-534); experiment: flow cytometry on NIH-3T3 cells transfected with the B7-H3 IgV1 expression vector; fluorescein anti-mouse IgG secondary; FL1 Log histogram
T7 construct: expressed on cells from pFLAG-myc-CMV-19-DEST; leader or tag from the vector not described
T7 sequence: T5 sequence with V3L, R23C, T54A, R57Q
Method: as §1, §2

Sequence of B7-H1 (B7 family protein, on transfected 293T cells) (Q9NZQ7 19-290 limits assumed): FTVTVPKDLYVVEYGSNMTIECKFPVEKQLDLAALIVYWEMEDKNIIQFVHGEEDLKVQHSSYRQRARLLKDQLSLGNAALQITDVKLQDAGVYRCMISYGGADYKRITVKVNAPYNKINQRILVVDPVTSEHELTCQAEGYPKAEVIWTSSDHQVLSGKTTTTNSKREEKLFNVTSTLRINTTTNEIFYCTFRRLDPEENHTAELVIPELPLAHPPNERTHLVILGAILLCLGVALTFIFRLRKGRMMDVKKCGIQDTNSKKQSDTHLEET

binding result [1]: no binding
binding result [2]: no binding
binding result [3]: no binding
binding result [4]: no binding
binding result [5]: no binding
binding result [6]: no binding
IC50 (read off the curve) [7]: ~0.5 µg/mL
Kd [8]: 5.89 nM
binding result [9]: no binding
B1: M30 antibody (mouse anti-human B7-H3 monoclonal antibody produced by B7-H3 hybridoma M30) (antibody, mouse IgG2a, kappa)
heavy: EVQLQQSGPELVKPGASVKMSCKASGYTFTNYVMHWVKQKPGQGLEWIGYINPYNDDVKYNEKFKGKATQTSDKSSSTAYMELSSLTSEDSAVYYCARWGYYGSPLYYFDYWGQGTTLTVSSAKTTAPSVYPLAPVCGDTTGSSVTLGCLVKGYFPEPVTLTWNSGSLSSGVHTFPAVLQSDLYTLSSSVTVTSSTWPSQSITCNVAHPASSTKVDKKIEPRGPTIKPCPPCKCPAPNLLGGPSVFIFPPKIKDVLMISLSPIVTCVVVDVSEDDPDVQISWFVNNVEVHTAQTQTHREDYNSTLRVVSALPIQHQDWMSGKEFKCKVNNKDLPAPIERTISKPKGSVRAPQVYVLPPPEEEMTKKQVTLTCMVTDFMPEDIYVEWTNNGKTELNYKNTEPVLDSDGSYFMYSKLRVEKKNWVERNSYSCSVVHEGLHNHHTTKSFSRTPGK
light: QIVLSQSPTILSASPGEKVTMTCRASSRLIYMHWYQQKPGSSPKPWIYATSNLASGVPARFSGSGSGTSYSLTISRVEAEDAATYYCQQWNSNPPTFGTGTKLELKRADAAPTVSIFPPSSEQLTSGGASVVCFLNNFYPKDINVKWKIDGSERQNGVLNSWTDQDSKDSTYSMSSTLTLTKDEYERHNSYTCEATHKTSTSPIVKSFNRNEC
notes: Mouse IgG2a, kappa; Used as hybridoma culture supernatant in the flow cytometry and as purified antibody in SPR and ELISA; also called mouse antibody M30
